Laboratory results: publication PMC9890228 (The EMBO Journal, 2022)

Target: T1, FANCD2 (human, UniProt Q9BXW9 1-1451)
T1 construct: The cryo-EM methods say only 'purified FANCD2'; The ubiquitination and deubiquitination reactions used N-terminally FLAG-tagged FANCD2; the functional rows use this molecule for it (for the USP1 rows in its K561-ubiquitinated form, D2Ub); Constructs as in Arkinson et al 2018 and Rennie et al 2020; also called D2^WT; source: Sf21 insect cells, purified (NiNTA, anion exchange, gel filtration)
Assay: cryo-EM structure; ubiquitinated His6-V5-FANCI mixed with FANCD2 at 1:1 molar ratio, 61 bp dsDNA added at 1:1; 20 mM Tris pH 8.0, 150 mM NaCl, 2 mM DTT; 4.1 Å global resolution
Conditions: both partners purified

T1 sequence (Q9BXW9 whole entry): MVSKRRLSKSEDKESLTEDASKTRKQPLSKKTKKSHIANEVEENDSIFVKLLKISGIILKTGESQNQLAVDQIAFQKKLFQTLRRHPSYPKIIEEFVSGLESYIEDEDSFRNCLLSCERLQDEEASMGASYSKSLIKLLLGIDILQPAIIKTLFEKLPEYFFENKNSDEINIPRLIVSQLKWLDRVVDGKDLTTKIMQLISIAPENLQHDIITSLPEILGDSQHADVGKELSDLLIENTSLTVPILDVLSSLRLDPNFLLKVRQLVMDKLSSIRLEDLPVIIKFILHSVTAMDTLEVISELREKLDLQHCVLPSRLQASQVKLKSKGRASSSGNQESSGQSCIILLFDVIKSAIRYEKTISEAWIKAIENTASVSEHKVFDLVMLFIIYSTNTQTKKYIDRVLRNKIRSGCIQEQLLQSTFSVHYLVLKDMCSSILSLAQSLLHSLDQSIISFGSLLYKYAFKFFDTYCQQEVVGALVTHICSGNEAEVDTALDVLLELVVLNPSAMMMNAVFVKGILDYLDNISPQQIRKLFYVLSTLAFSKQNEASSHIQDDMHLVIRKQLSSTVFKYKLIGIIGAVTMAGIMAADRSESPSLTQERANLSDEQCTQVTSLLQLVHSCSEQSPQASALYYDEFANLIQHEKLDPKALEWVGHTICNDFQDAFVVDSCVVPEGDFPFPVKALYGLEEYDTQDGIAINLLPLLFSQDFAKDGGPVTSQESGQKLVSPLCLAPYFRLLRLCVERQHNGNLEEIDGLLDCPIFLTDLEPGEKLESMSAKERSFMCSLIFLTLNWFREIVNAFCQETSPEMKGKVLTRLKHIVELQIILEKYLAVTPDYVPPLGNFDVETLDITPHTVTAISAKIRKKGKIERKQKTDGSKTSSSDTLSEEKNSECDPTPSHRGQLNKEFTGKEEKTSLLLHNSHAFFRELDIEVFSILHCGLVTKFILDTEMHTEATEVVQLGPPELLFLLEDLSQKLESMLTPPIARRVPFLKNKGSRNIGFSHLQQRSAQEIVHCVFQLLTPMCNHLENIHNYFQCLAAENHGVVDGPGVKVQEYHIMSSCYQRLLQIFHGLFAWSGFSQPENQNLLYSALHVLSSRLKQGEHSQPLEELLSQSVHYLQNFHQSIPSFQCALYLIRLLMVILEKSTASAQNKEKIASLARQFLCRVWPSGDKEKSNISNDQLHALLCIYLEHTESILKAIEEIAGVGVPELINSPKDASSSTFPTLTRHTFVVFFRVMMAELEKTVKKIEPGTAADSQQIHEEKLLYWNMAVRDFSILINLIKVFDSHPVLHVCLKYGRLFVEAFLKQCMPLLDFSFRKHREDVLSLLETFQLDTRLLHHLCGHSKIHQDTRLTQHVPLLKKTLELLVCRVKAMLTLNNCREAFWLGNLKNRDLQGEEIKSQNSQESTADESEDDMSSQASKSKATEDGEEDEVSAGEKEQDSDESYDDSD

binding result: binds
B1: FANCI (the FANCI chain of ubiquitinated His6‐V5‐FANCI) (natural protein, human, UniProt Q9NVI1 1-1328, looked up)
chain: MDQKILSLAAEKTADKLQEFLQTLREGDLTNLLQNQAVKGKVAGALLRAIFKGSPCSEEAGTLRRRKIYTCCIQLVESGDLQKEIASEIIGLLMLEAHHFPGPLLVELANEFISAVREGSLVNGKSLELLPIILTALATKKENLAYGKGVLSGEECKKQLINTLCSGRWDQQYVIQLTSMFKDVPLTAEEVEFVVEKALSMFSKMNLQEIPPLVYQLLVLSSKGSRKSVLEGIIAFFSALDKQHNEEQSGDELLDVVTVPSGELRHVEGTIILHIVFAIKLDYELGRELVKHLKVGQQGDSNNNLSPFSIALLLSVTRIQRFQDQVLDLLKTSVVKSFKDLQLLQGSKFLQNLVPHRSYVSTMILEVVKNSVHSWDHVTQGLVELGFILMDSYGPKKVLDGKTIETSPSLSRMPNQHACKLGANILLETFKIHEMIRQEILEQVLNRVVTRASSPISHFLDLLSNIVMYAPLVLQSCSSKVTEAFDYLSFLPLQTVQRLLKAVQPLLKVSMSMRDCLILVLRKAMFANQLDARKSAVAGFLLLLKNFKVLGSLSSSQCSQSLSVSQVHVDVHSHYNSVANETFCLEIMDSLRRCLSQQADVRLMLYEGFYDVLRRNSQLANSVMQTLLSQLKQFYEPKPDLLPPLKLEACILTQGDKISLQEPLDYLLCCIQHCLAWYKNTVIPLQQGEEEEEEEEAFYEDLDDILESITNRMIKSELEDFELDKSADFSQSTSIGIKNNICAFLVMGVCEVLIEYNFSISSFSKNRFEDILSLFMCYKKLSDILNEKAGKAKTKMANKTSDSLLSMKFVSSLLTALFRDSIQSHQESLSVLRSSNEFMRYAVNVALQKVQQLKETGHVSGPDGQNPEKIFQNLCDITRVLLWRYTSIPTSVEESGKKEKGKSISLLCLEGLQKIFSAVQQFYQPKIQQFLRALDVTDKEGEEREDADVSVTQRTAFQIRQFQRSLLNLLSSQEEDFNSKEALLLVTVLTSLSKLLEPSSPQFVQMLSWTSKICKENSREDALFCKSLMNLLFSLHVSYKSPVILLRDLSQDIHGHLGDIDQDVEVEKTNHFAIVNLRTAAPTVCLLVLSQAEKVLEEVDWLITKLKGQVSQETLSEEASSQATLPNQPVEKAIIMQLGTLLTFFHELVQTALPSGSCVDTLLKDLCKMYTTLTALVRYYLQVCQSSGGIPKNMEKLVKLSGSHLTPLCYSFISYVQNKSKSLNYTGEKKEKPAAVATAMARVLRETKPIPNLIFAIEQYEKFLIHLSKKSKVNLMQHMKLSTSRDFKIKGNILDMVLREDGEDENEEGTASEHGGQNKEPAKKKRKK
modifications: K523 isopeptide-linked to G76 of ubiquitin
notes: The FANCI chain of m1, written on its own for its contacts with FANCD2 in the structure; source: Sf21 insect cells, purified (NiNTA, anion exchange, gel filtration); ubiquitinated in vitro; not shown: His6, N-terminal, kept; V5, N-terminal, kept
